Experimental data reported in publication PMC10679500, “Posttranslational modification and heme cavity architecture of human eosinophil peroxidase—insights from first crystal structure and biochemical characterization” (The Journal of Biological Chemistry, 2023).

Target: T1, eosinophil peroxidase heavy chain (human, UniProt P11678 251-715, Glu380 ester-linked to the heme cofactor (hydroxymethyl group on pyrrole ring A); N-glycans at Asn327 and Asn363)
T1 construct: human eosinophil peroxidase (EPO), C-terminal heavy chain of the mature enzyme; G250/V251-T715; N-terminus heterogeneous (G250 or V251); first resolved residue in the crystal is Val251; One of the two polypeptides of mature leukocyte EPO; part of the sample may begin at G250; A mixture of glycoforms was crystallized; also called EPO H-chain; HC
T1 sequence (looked up): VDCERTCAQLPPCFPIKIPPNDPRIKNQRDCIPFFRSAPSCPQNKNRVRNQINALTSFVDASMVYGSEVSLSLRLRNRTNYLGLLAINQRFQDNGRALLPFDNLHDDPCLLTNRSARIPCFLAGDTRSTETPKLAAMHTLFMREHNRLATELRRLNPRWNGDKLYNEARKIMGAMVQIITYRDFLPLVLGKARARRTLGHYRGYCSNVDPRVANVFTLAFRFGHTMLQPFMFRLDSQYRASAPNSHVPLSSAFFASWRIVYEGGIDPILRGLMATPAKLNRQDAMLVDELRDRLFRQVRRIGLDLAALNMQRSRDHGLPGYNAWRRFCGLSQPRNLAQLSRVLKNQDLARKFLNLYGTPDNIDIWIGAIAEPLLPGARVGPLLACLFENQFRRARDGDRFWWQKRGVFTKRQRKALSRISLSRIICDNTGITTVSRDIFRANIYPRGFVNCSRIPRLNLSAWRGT
Experiment: crystal structure; mixture of EPO glycoforms from human leukocytes, 10 mg/ml in 5 mM phosphate pH 7.0; crystallized in 0.2 M trisodium citrate pH 4.1, 20% (w/v) PEG, vapor diffusion, 22 °C; 1.6 Å; one monomer per asymmetric unit
Conditions: both partners purified

B1: eosinophil peroxidase light chain (domain or fragment)
chain: not shown
modifications: Asp232 ester-linked to the heme cofactor (hydroxymethyl group on pyrrole ring C)
notes: human eosinophil peroxidase (EPO), N-terminal light chain of the mature enzyme after removal of signal peptide, propeptide (18-139) and the peptide V/AFTA/G; R140-R244/V245; C-terminus heterogeneous by MS (77.2% arginine, 23.8% valine as terminal residue); last resolved residue in the crystal is Arg244; One of the two polypeptides of mature leukocyte EPO; a minor part of the sample ends at V245; …
  binding result: binds
